Data as given in patent US20090155256A1.

Target: His-tagged domains of human FcγRII (R&D Systems, Cat # 1330-CD) (human) (UniProt P12318)
Test: SPR (Biacore 3000), His-tagged receptor captured by penta-His antibody on CM5 chip, antibody injected; RU relative to control

Relative Binding Capability (%): 100%
Substance: Bapineuzumab (humanized 3D6, human IgG1, no Fc mutations) (antibody)
